# Test results reported in paper doi:10.1101/2021.09.10.459853v1 (bioRxiv, 2021).
# Key:
# [1] = test system: SST2 CNiFERs implanted in mouse cortex; experiment: SST volume transmission in vivo, core-satellite SST2 CNiFER implants; details: normal mouse cortex; distance less than 130 μm
# [2] = cited from earlier work
# [3] = target: SST2 receptor (hSSTR2) in SST2 CNiFER clone #5F3 (Homo sapiens, UniProt P30874); experiment: SST2 CNiFER FRET response, plate reader; format: cell-based; details: 1000 nM; n = 3-6
# Sequence of SST2 receptor (hSSTR2) in SST2 CNiFER clone #5F3 (P30874 whole entry): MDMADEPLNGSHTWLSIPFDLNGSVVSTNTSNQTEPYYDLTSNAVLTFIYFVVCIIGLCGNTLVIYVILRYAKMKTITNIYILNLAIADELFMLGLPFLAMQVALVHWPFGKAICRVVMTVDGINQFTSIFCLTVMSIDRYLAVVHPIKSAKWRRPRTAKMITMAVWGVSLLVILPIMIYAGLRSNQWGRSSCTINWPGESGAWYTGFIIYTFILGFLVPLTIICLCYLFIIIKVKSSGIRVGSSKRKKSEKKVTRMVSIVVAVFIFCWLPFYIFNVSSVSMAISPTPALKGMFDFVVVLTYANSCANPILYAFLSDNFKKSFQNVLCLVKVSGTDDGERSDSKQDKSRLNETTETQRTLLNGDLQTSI
# [4] = Integrative optical imaging; format: physicochemical; details: IOI, 0.3% dilute agarose gel in PBS; 31°C; n=30 records; Mean ± S.D.; SD
# [5] = test system: hyaluronan in mouse brain cortex; experiment: HABP immunostaining after intraventricular hyaluronidase; format: in vivo; details: two days after hyase injection, n = 5 slices
# [6] = cited from earlier work; remark: listed apart in the source
compound,measurement,setting,value
"C[C@H](N)C(=O)NCC(=O)N[C@H]1CSSC[C@@H](C(=O)O)NC(=O)[C@H](CO)NC(=O)[C@H]([C@@H](C)O)NC(=O)[C@H](Cc2ccccc2)NC(=O)[C@H]([C@@H](C)O)NC(=O)[C@H](CCCCN)NC(=O)[C@H](Cc2c[nH]c3ccccc23)NC(=O)[C@H](Cc2ccccc2)NC(=O)[C@H](Cc2ccccc2)NC(=O)[C@H](CC(N)=O)NC(=O)[C@H](CCCCN)NC1=O [SST, Somatostatin-14]",time to activate SST2 CNiFERs,[1],below 10 s
same,half-life in plasma,[2],1 to 3 min
CC(=O)OCC[N+](C)(C)C [acetylcholine],FRET response of SST2 CNiFERs,[3],small response
Fluorescein-5(6)-carbonyl-somatostatin-14 [5(6)-FAM-SST],free diffusion coefficient (D),[4],(3.00 ± 0.18) × 10^-6 cm^2•s^-1
hyaluronidase,cell nuclei number or size in cortex compared with control group,[5],no differences
oxytocin,half-life in brain cerebrospinal fluid (CSF),[6],~ 20 mins
vasopressin,half-life in brain cerebrospinal fluid (CSF),[6],~ 20 mins
